Test results published in patent publication US20100015126A1, “Methods of Binding of Cross-Beta Structures By Chaperones” (priority 2006, published 2010).

Experiments:
human BiP [1] = target: T1, human BiP (Homo sapiens, UniProt P11021); test: Competition ELISA: BiP binding to misfolded proteins under influence of crossbeta binding compounds; settings: for Influence on interaction of BiP with misfolded proteins comprising crossbeta structure (summary in words): BiP binding without compound set to 100%
T1 construct: The human BiP gene except the signal peptide encoding region was obtained from Geneart (Germany); linker […]; made in house; host or cells: HEK 293E cells, transient transfection, PABC674 vector; secreted into the medium
How it was run: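 Misfolded protein ligands were coated in pH 9.6 bicarbonate, typically at 5 μg/ml. A fixed sub-optimal BiP concentration was incubated for 1 h at room temperature with crossbeta-binding compound series, and bound BiP was detected by peroxidase antibodies with TMB read at 450 nm. Signals were background-subtracted, and binding without compound was set to 100%.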

[2] = Transmission electron microscopy (TEM); assay type: physicochemical; settings: for TEM: 2.5 mg/ml peptide stocks; for Appearance on TEM images: magnification 10K
Procedure: Transmission Electron Microscopy (TEM)
TEM images were collected using a Jeol 1200 EX transmission electron microscope (Jeol Ltd., Tokyo, Japan) at an excitation voltage of 80 kV. For each sample, the formvar and carbon-coated side of a 100-mesh copper or nickel grid was positioned on a 5 μl drop of protein solution for 5 minutes. Afterwards, it was positioned on a 100 μl drop of PBS for 2 minutes, followed by three 2-minute incubations with a 100 μl drop of distilled water. The grids were then stained for 2 minutes with a 100 μl drop of 2% (m/v) methylcellulose with 0.4% uranyl acetate pH 4. Excess fluid was removed by streaking the side of the grids over filter paper, and the grids were subsequently dried under a lamp. Samples were analysed at a magnification of 10K.

human BiP [3] = target: T1, human BiP; test: ELISA: binding of BiP in cell culture supernatant to immobilized misfolded proteins; settings: undiluted supernatant of 293E cells overexpressing BiP; ligands coated at 5 μg/ml, Aβ 20 μg/ml
Procedure: Binding of BiP to Misfolded Proteins with Crossbeta Structure
Proteins at 5 μg/ml were coated for 1 h at room temperature with agitation, in Microlon high-binding ELISA plates (Greiner) in 50 mM NaHCO3 pH 9.6, except for Aβ that was coated at 20 μg/ml. Buffer was coated as negative control. A twofold dilutions series of cell culture supernatant of HEK 293E cells overexpressing BiP was also coated to the plate for anti-FLAG-tag antibody control purposes. Plates were washed and blocked with ½*Blocking reagent (Roche). Undiluted cell culture supernatant enriched with 0.1% Tween20 was added to the wells with immobilized protein ligands and incubated for 1 h at room temperature with agitation. Medium was discarded and the plate was washed with PBS with 0.1% v/v Tween20. Mouse monoclonal anti-FLAG-tag antibody (Sigma, A8592, anti-FLAG M2PO conjugate) was diluted 1000× in PBS/0.1% Tween20 and added to all wells, including those that are coated with cell culture supernatant. After a 1 h incubation at room temperature with agitation and after washing, wells were overlayed with 3000× diluted RAMPO (DAKOCytomation) in PBS/0.1% Tween20. After 30 minutes the plate was washed and bound peroxidase was visualised with tetramethylbenzidine (TMB, #45.103.20/#45.014.01, Biosource, Nivelles, Belgium). The reaction was stopped after 5 minutes with 10% H2SO4 in H2O. Plates were read at 450 nm.

[4] = fixed sub-optimal BiP concentration, 10 mM ε-amino caproic acid

T1 sequence (P11021 19-654): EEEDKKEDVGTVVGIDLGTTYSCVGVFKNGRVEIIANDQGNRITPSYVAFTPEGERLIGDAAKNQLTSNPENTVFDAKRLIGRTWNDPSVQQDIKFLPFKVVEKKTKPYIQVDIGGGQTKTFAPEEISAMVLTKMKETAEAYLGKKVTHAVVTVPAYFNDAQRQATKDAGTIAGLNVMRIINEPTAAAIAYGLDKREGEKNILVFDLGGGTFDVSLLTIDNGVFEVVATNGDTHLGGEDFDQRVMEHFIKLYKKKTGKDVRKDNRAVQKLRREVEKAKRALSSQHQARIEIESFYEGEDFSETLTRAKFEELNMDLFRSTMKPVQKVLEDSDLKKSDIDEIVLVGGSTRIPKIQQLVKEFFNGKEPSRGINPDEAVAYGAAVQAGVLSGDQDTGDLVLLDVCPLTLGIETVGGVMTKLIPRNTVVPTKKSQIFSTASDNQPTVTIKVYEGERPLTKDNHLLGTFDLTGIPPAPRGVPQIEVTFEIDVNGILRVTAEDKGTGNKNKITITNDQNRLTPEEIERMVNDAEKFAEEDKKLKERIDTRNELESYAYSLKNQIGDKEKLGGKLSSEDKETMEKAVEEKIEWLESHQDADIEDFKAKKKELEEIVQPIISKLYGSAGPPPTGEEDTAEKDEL

Compound: Nc1c(/N=N/c2ccc(-c3ccc(/N=N/c4cc(S(=O)(=O)O)c5ccccc5c4N)cc3)cc2)cc(S(=O)(=O)O)c2ccccc12 [Congo red]
- Influence on interaction of BiP with misfolded proteins comprising crossbeta structure (summary in words) (human BiP [1]): general inhibitors

Compound: Cc1ccc2c(c1)sc(-c1ccc(N(C)C)cc1)[n+]2C.[Cl-] [ThT, Thioflavin T]
- Influence on interaction of BiP with misfolded proteins comprising crossbeta structure (summary in words) (human BiP [1]): can either potentiate BiP binding, or inhibit

Compound: AGEYYAAL [6BB7]
- TEM [2]: Very few small

Compound: BSA-AGE
- Binding of BiP to immobilized protein (ELISA) (human BiP [3]): binds
- Appearance on TEM images [2]: non-fibrillar amorphous aggregates

Compound: GSNKGAIIGLM [6BB6, Human Aβ (25-35)]
- TEM [2]: Thin aggregated
- Influence of K2P tPA on interaction of BiP with misfolded protein (human BiP [1]; [4]): −
- Influence of tPA on interaction of BiP with misfolded protein (human BiP [1]; [4]): ↓ (a ↓ sign refers to inhibited abolished binding of BiP)
- Influence of IgIV on interaction of BiP with misfolded protein (human BiP [1]; fixed sub-optimal BiP concentration, IgIV Octagam series): ↓ (a ↓ sign refers to inhibited abolished binding of BiP)
- Influence of Congo red on interaction of BiP with misfolded protein (human BiP [1]; fixed sub-optimal BiP concentration, concentration series of Congo red): ↓ (a ↓ sign refers to inhibited abolished binding of BiP)
- Influence of ThS on interaction of BiP with misfolded protein (human BiP [1]; fixed sub-optimal BiP concentration, concentration series of ThS): −

Compound: HbAGE: human haemoglobin glycated with glucose-6-phosphate for 75 weeks
- Binding of BiP to immobilized protein (ELISA) (human BiP [3]): binds
- Appearance on TEM images [2]: non-fibrillar amorphous aggregates

Compound: KLVFFAE [6BB12, Human Aβ16-22]
- TEM [2]: Large dense clusters

Compound: native BSA: non-modified bovine serum albumin control
- Binding of BiP to immobilized protein (ELISA) (human BiP [3]): not
